According to publication PMC11342371:

Experiments:
[1] = target: human C-reactive protein (human) (UniProt P02741); experiment: mass photometry; in ammonium acetate; decamer to pentamers
[2] = target: human C-reactive protein (human) (UniProt P02741); experiment: native MS; 0.5, 1 and 7 uM, ammonium acetate; decamer to pentamers
[3] = target: human C-reactive protein (human) (UniProt P02741); experiment: mass photometry; nanohole-PEG surface (10 ug cm^-2 of 100 nm SNPs), PBS pH 7.2, across different analyte concentrations (500 nM shown), at equilibrium; decamer to pentamers, KD = [monomer]^2/[dimer] with the pentamer as the monomer

Kd [1]: 3.4 µM
Kd [2]: 2.46 µM
Kd [3]: 2.6 µM
stoichiometry N [3]: 10
Substance: human C-reactive protein (from UniProt P02741 19-224) (natural protein)
